For 16 molecules, Kd results are on record in patent publication US20030068675, “Position dependent recognition of GNN nucleotide triplets by zinc fingers” (published 2003).

What all share (assay): EMSA
Conditions in all cases: tags: MBP fusion

One data set addresses T1, ZFP SBS#461 (synthetic).
T1 chain: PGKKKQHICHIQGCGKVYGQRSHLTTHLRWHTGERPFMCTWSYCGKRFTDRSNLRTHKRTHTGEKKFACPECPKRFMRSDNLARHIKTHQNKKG
An outline of the steps: (§1)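 Purified ZFP was titrated against labeled double-stranded target (1 nM or lower, at least 10-fold below expected Kd) carrying the natural binding site with flanks. Binding buffer was 10 mM Tris pH 7.5, 100 mM KCl, 1 mM MgCl2, 0.1 mM ZnCl2, 5 mM DTT, 10% glycerol, 0.02% BSA, with equilibration for at least 45 min. Bound and free target were separated on a 10% polyacrylamide gel.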

A further data set has as its target T2, ZFP SBS#993 (synthetic, UniProt P08047).
T2 chain: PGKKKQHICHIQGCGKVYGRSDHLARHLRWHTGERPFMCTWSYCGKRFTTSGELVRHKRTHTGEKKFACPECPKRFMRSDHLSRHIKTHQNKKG
The method in brief:
as §1

Another data set concerns the target T3, ZFP SBS#941 (synthetic).
T3 chain: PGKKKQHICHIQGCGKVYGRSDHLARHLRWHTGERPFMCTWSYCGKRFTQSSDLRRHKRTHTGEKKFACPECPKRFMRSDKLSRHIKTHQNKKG
An outline of the steps:
as §1

Another data set has as its target T4, ZFP SBS#943 (synthetic).
T4 chain: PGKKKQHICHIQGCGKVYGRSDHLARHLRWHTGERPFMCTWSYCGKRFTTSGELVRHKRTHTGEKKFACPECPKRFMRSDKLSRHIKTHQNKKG
The method in brief:
as §1

The next data set concerns the target T5, ZFP SBS#1039 (synthetic).
T5 chain: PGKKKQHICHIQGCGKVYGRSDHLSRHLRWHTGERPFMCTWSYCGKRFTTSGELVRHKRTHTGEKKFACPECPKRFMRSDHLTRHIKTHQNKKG
The method in brief:
as §1

Another data set deals with ZFP SBS#944 (synthetic, UniProt P08047). The method in brief:
as §1

Another data set deals with ZFP SBS#1040 (synthetic, UniProt P08047). The method in brief:
as §1

A further data set deals with ZFP SBS#942 (synthetic, UniProt P08047). The method in brief:
as §1

Another data set addresses T6, ZFP SBS#1026 (synthetic).
T6 chain: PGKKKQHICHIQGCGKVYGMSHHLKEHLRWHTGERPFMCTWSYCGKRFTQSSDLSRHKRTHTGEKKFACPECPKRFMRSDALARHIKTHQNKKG
The method in brief: as §1

The next data set concerns the target T7, ZFP SBS#1051 (synthetic).
T7 chain: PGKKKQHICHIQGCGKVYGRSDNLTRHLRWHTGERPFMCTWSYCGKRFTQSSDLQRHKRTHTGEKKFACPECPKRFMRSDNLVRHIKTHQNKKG
An outline of the steps:
as §1

Another data set concerns the target ZFP SBS#1038 (synthetic). The method in brief:
as §1

Another data set addresses ZFP SBS#1037 (synthetic). An outline of the steps:
as §1

A further data set deals with T8, ZFP SBS#1052 (synthetic).
T8 chain: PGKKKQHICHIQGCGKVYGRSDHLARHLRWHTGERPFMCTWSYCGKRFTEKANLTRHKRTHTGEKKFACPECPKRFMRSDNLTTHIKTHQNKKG
An outline of the steps: as §1

For another data set, the target named is T9, ZFP SBS#1053 (synthetic).
T9 chain: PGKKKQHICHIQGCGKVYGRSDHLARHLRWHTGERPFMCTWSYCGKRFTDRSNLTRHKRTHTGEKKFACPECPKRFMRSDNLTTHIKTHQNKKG
The method in brief: as §1

For another data set, the target named is T10, ZFP SBS#1027 (synthetic, UniProt P08047).
T10 chain: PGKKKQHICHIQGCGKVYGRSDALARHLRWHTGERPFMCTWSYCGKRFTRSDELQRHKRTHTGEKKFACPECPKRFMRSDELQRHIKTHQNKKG
The method in brief: as §1

Another data set has as its target ZFP SBS#964 (synthetic). The method in brief:
as §1

The next data set has as its target ZFP SBS#1050 (synthetic). An outline of the steps: as §1
A further data set has as its target T11, ZFP SBS#1048 (synthetic).
T11 chain: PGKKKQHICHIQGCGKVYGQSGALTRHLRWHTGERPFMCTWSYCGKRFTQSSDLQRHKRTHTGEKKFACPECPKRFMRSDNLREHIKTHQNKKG
The method in brief: as §1

The next data set deals with T12, ZFP SBS#1049 (synthetic).
T12 chain: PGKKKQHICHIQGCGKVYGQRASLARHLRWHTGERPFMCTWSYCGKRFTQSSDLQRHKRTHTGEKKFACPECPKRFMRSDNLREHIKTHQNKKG
An outline of the steps: as §1

The target of another data set is ZFP SBS#258 (synthetic). An outline of the steps:
as §1

The target of another data set is T13, ZFP SBS#919 (synthetic).
T13 chain: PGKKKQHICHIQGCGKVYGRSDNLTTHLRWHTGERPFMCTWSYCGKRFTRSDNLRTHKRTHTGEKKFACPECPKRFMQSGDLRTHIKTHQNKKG
An outline of the steps: as §1

The next data set has as its target T14, ZFP SBS#1041 (synthetic).
T14 chain: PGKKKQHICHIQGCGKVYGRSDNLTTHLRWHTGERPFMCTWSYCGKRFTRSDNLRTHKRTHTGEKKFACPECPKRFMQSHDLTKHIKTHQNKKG
An outline of the steps:
as §1

In another data set the target is T15, ZFP SBS#1033 (synthetic).
T15 chain: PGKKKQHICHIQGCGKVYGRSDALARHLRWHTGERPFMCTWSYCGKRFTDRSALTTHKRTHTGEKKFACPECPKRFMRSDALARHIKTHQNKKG
An outline of the steps: as §1

The target of the next data set is T16, ZFP SBS#1034 (synthetic).
T16 chain: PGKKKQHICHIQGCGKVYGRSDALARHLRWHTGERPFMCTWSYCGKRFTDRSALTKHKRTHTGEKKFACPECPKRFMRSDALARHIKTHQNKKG
The method in brief: as §1

A further data set addresses T17, ZFP SBS#1035 (synthetic).
T17 chain: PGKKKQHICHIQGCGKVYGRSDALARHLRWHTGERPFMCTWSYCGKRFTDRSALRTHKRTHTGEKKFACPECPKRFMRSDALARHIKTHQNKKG
An outline of the steps:
as §1

The target of another data set is ZFP SBS#441 (synthetic). An outline of the steps: as §1
Chain of ZFP SBS#441 (synthetic) (chain, as listed by the source): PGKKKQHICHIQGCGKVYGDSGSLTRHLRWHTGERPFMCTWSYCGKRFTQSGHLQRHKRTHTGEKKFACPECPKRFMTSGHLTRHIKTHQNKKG
The target in the next data set is ZFP SBS#453 (synthetic). An outline of the steps: as §1
Chain of ZFP SBS#453 (synthetic) (chain, as listed by the source): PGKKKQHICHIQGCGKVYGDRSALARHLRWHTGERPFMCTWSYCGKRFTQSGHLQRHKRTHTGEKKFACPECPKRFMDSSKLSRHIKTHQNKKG
The next data set deals with T18, ZFP SBS#1047 (synthetic).
T18 chain: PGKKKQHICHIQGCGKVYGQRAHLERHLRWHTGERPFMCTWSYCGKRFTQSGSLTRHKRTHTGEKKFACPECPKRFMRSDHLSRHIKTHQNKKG
The method in brief: as §1

The next data set concerns the target ZFP SBS#1046 (synthetic). An outline of the steps:
as §1

For a further data set, the target named is ZFP SBS#1045 (synthetic). The method in brief:
as §1

The next data set concerns the target T19, ZFP SBS#450 (synthetic).
T19 chain: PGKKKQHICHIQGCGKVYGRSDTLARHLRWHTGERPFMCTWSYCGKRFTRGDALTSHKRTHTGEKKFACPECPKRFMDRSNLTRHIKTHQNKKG
The method in brief:
as §1

In a further data set the target is ZFP SBS#1032 (synthetic). The method in brief: as §1
Chain of ZFP SBS#1032 (synthetic) (chain, as listed by the source): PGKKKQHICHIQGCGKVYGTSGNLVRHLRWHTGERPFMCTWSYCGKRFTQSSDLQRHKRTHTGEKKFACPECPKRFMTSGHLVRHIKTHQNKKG
A further data set has as its target ZFP SBS#988 (synthetic). An outline of the steps:
as §1

A further data set deals with ZFP SBS#986 (synthetic). The method in brief: as §1
Chain of ZFP SBS#986 (synthetic) (chain, as listed by the source): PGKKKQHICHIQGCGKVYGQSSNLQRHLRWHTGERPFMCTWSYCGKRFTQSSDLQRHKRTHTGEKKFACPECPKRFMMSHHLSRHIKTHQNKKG
The next data set concerns the target ZFP SBS#987 (synthetic). An outline of the steps: as §1
Another data set deals with T20, ZFP SBS#1044 (synthetic).
T20 chain: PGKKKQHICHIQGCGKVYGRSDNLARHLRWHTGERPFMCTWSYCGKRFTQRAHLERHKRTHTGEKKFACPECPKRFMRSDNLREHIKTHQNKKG
An outline of the steps:
as §1

In another data set the target is ZFP SBS#1043 (synthetic). An outline of the steps: as §1
Chain of ZFP SBS#1043 (synthetic) (chain, as listed by the source): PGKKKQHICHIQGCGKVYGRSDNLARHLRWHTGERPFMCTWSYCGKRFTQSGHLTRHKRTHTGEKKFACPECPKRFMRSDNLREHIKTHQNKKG

Chain of ZFP SBS#944 (P08047 other isoform, or with tags, fused parts or gaps): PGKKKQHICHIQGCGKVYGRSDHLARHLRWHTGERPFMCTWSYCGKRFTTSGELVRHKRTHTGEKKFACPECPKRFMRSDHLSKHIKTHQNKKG
Chain of ZFP SBS#988 (synthetic) (chain, as listed by the source): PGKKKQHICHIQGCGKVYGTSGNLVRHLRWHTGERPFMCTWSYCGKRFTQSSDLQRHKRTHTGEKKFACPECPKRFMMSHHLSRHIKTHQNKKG
Chain of ZFP SBS#1045 (synthetic) (chain, as listed by the source): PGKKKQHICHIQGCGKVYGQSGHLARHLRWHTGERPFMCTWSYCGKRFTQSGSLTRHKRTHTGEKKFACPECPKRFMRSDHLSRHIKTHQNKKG
Chain of ZFP SBS#942 (P08047 other isoform, or with tags, fused parts or gaps): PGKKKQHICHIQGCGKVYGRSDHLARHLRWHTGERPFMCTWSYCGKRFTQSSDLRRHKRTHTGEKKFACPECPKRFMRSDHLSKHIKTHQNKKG
Chain of ZFP SBS#1050 (synthetic) (chain, as listed by the source): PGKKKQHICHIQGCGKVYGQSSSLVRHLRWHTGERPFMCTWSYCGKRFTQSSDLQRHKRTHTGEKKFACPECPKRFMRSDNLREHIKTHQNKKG
Chain of ZFP SBS#1038 (synthetic) (chain, as listed by the source): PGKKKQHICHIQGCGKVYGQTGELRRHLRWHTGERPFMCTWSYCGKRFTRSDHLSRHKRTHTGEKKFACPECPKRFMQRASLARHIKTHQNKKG
Chain of ZFP SBS#964 (synthetic) (chain, as listed by the source): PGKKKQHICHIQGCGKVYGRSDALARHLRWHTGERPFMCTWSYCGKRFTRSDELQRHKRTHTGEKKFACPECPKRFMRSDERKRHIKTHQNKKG
Chain of ZFP SBS#1037 (synthetic) (chain, as listed by the source): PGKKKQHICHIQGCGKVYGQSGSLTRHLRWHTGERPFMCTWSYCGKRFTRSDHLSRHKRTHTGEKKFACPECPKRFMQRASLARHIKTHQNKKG
Chain of ZFP SBS#1040 (P08047 other isoform, or with tags, fused parts or gaps): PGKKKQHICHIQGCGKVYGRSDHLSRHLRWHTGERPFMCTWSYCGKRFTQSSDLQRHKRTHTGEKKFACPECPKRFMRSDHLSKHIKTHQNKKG
Chain of ZFP SBS#258 (synthetic) (chain, as listed by the source): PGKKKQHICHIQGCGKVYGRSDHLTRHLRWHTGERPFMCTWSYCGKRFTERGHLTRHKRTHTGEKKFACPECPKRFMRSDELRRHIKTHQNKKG

B1: GAGTACTGTA (dsDNA)
DNA 1: GAGTACTGTA
DNA 2: TACAGTACTC
In turn, B1 gave a Kd in the data set with ZFP SBS#461 of 120 nM.

B2: GGGGCTGGG (dsDNA)
DNA 1: GGGGCTGGG
DNA 2: CCCAGCCCC
In the case of B2, the Kd with ZFP SBS#993 was 3.1 nM; with ZFP SBS#941, 0.077 nM; with ZFP SBS#943, 0.067 nM; in the data set with ZFP SBS#1039, 1.37 nM; with ZFP SBS#944, 0.027 nM; in the data set with ZFP SBS#1040, 0.05 nM. In the data set with ZFP SBS#942, this molecule came in with a Kd of 0.13 nM.

B3: GTGGCTTGT (dsDNA)
DNA 1: GTGGCTTGT
DNA 2: ACAAGCCAC
As for B3, binding with ZFP SBS#1026 was characterised by a dissociation constant (Kd) of 0.076 nM.

B4: GAGGCTGAG (dsDNA)
DNA 1: GAGGCTGAG
DNA 2: CTCAGCCTC
With B4, binding with ZFP SBS#1051 was put at a Kd of 0.02 nM.

B5: GTAGGGGCA (dsDNA)
DNA 1: GTAGGGGCA
DNA 2: TGCCCCTAC
B5: the figures for the Kd with ZFP SBS#1038 and with ZFP SBS#1037 were 0.152 nM and 0.05 nM, respectively.

B6: TAGGACGGG (dsDNA)
DNA 1: TAGGACGGG
DNA 2: CCCGTCCTA
For B6, the Kd with ZFP SBS#1052 came out at 0.28 nM; with ZFP SBS#1053, 0.025 nM.

B7: GCGGCGGTG (dsDNA)
DNA 1: GCGGCGGTG
DNA 2: CACCGCCGC
Turning to B7, the Kd in the data set with ZFP SBS#1027 worked out at 0.054 nM; with ZFP SBS#964 it was 0.041 nM.

B8: CAGGCTGTA (dsDNA)
DNA 1: CAGGCTGTA
DNA 2: TACAGCCTG
As to B8, the Kd with ZFP SBS#1050 amounted to 0.125 nM; in the data set with ZFP SBS#1048 it was 1.39 nM; with ZFP SBS#1049, 55.6 nM.

B9: GCGGGCGGG (dsDNA)
DNA 1: GCGGGCGGG
DNA 2: CCCGCCCGC
B9 gave an equilibrium dissociation constant (Kd) with ZFP SBS#258 of 15 nM.

B10: TCATAGTAG (dsDNA)
DNA 1: TCATAGTAG
DNA 2: CTACTATGA
As to B10, the Kd in the data set with ZFP SBS#919 was 250 nM; in the data set with ZFP SBS#1041, 2.06 nM.

B11: GTGTTCGTG (dsDNA)
DNA 1: GTGTTCGTG
DNA 2: CACGAACAC
Take B11: the values for the Kd in the data set with ZFP SBS#1033, with ZFP SBS#1034 and with ZFP SBS#1035 were 685 nM, 14.6 nM and 56 nM, respectively.

B12: GGTGGAGTCA (dsDNA)
DNA 1: GGTGGAGTCA
DNA 2: TGACTCCACC
Consider B12, for which the figures for the Kd in the data set with ZFP SBS#441 and in the data set with ZFP SBS#453 were 250 nM and 150 nM, respectively.

B13: GGGGCAGGA (dsDNA)
DNA 1: GGGGCAGGA
DNA 2: TCCTGCCCC
Turning to B13, the figures for the Kd in the data set with ZFP SBS#1047, with ZFP SBS#1046 and in the data set with ZFP SBS#1045 were 24.7 nM, 0.09 nM and 0.15 nM, respectively.

B14: GACTTGGTGC (dsDNA)
DNA 1: GACTTGGTGC
DNA 2: GCACCAAGTC
In turn, B14 had a Kd with ZFP SBS#450 of 130 nM.

B15: GGTGCTGAT (dsDNA)
DNA 1: GGTGCTGAT
DNA 2: ATCAGCACC
In the case of B15, the Kd in the data set with ZFP SBS#1032 amounted to 0.52 nM; with ZFP SBS#988 it was 0.15 nM; with ZFP SBS#986, 1.6 nM; with ZFP SBS#987 it was 33.5 nM.

B16: CAGGGAGAG (dsDNA)
DNA 1: CAGGGAGAG
DNA 2: CTCTCCCTG
As to B16, the Kd with ZFP SBS#1044 worked out at 1.07 nM; with ZFP SBS#1043, 0.16 nM.
